# Results taken from patent publication US20080317767A1, “Tripartitle Raftophilic Strutures and their Use” (priority 2004, published 2008).
# Where a SMILES comes first, the peptide text is derived from it. [ ]: non-standard residue; d: D form. The star is where a group is joined. Piperazinyl(4-RhodamineB) = CCN(CC)c1ccc2c(-c3ccccc3C(=O)N3CCN(*)CC3)c3ccc(=[N+](CC)CC)cc-3oc2c1; X1 = CC(C)CCC[C@@H](C)[C@H]1CCC2C3CCC4C[C@@H](O*)CC[C@]4(C)C3CC[C@@]21C; Sta = CC(C)C[C@H](N)[C@@H](O)CC(=O)O; βAla = NCCC(=O)O
# Assay: Qualitative solubility assessment in an aqueous medium
# Format: physicochemical
compound,measurement,value
CCN(CC)c1ccc2c(-c3ccccc3C(=O)N3CCN(C(=O)CC[C@H](N)C(=O)NCCC(=O)NCC(=O)N[C@@H](CCC(=O)O)C(=O)N[C@H](C(=O)N[C@@H](CC(N)=O)C(=O)N[C@@H](CC(C)C)[C@@H](O)CC(=O)N[C@H](C(=O)N[C@@H](C)C(=O)N[C@@H](CCC(=O)O)C(=O)N[C@@H](Cc4ccccc4)C(=O)N[C@@H](CCCNC(=N)N)C(=O)N[C@@H](Cc4c[nH]cn4)C(=O)N[C@@H](CC(=O)O)C(=O)N[C@@H](CO)C(=O)NCC(=O)N[C@@H](Cc4ccc(O)cc4)C(=O)N[C@@H](CCC(=O)O)C(=O)N[C@H](C(=O)N[C@@H](Cc4c[nH]cn4)C(=O)N[C@@H](Cc4c[nH]cn4)C(=O)N[C@@H](CCC(N)=O)C(=O)N[C@@H](CCCCN)C(=O)N[C@@H](CC(C)C)C(=O)N[C@H](C(=O)N[C@@H](Cc4ccccc4)C(=O)N[C@@H](Cc4ccccc4)C(=O)N[C@@H](C)C(=O)N[C@@H](CCC(=O)O)C(=O)N[C@@H](CC(=O)O)C(=O)N[C@H](C(=O)NCC(=O)N[C@@H](CO)C(=O)N[C@@H](CC(N)=O)C(=O)N[C@@H](CCCCN)C(=O)N[C@@H](CC(=O)O[C@H]4CC[C@@]5(C)C(CCC6C5CC[C@@]5(C)C6CC[C@@H]5[C@H](C)CCCC(C)C)C4)C(N)=O)C(C)C)C(C)C)C(C)C)C(C)C)C(C)C)CC3)c3ccc(=[N+](CC)CC)cc-3oc2c1 (stereo partly shown) [compound 24b] (H-E(Piperazinyl(4-RhodamineB))[βAla]GEVN[Sta]VAEFRHDSGYEVHHQKLVFFAEDVGSNKD(X1)-NH2),solubility in an aqueous medium (qualitative comparison of 24b and 25b),higher solubility
